{"source": "patent US20210071137A1", "about": "“PRODUCTION METHOD FOR CELL MASS INCLUDING NEURAL CELLS/TISSUE AND NON-NEURAL EPITHELIAL TISSUE, AND CELL MASS FROM SAME” (SUMITOMO CHEMICAL COMPANY, LIMITED, priority 2017, published 2021)", "format_in_all_cases": "cell-based", "key": {"[1]": {"tested_on": "cell mass containing neural tissue and nonneural epithelial tissue prepared from human ES cell line KhES-1", "assay": "Compound stimulability test by fluorescein staining and extraction (Example 11)", "settings": "test compound 2.5% in PBS, 24 hr, 37° C.; 0.02% fluorescein 30 sec; extraction 10 min; excitation 485 nm, emission 535 nm; Category 1 compound versus Category 2 compound", "procedure": "Cell masses were prepared by the method described in Example 3 from human ES cell line KhES-1. Cell masses were collected using micropipette on day 28 from the start of suspension culturing, placed in a dish for suspension culture (manufactured by SUMITOMO BAKELITE CO., LTD.), and further cultured in suspension under the conditions of 37° C., 5% CO2 for 9 days. As the serum-free medium (gfCDM+KSR) therefor, a serum-free medium which is a 1:1 mixture of F-12+Glutamax medium (manufactured by Thermo Fisher Scientific) and […] medium (manufactured by Thermo Fisher Scientific) supplemented with 10% Knockout Serum Replacement (manufactured by Thermo Fisher Scientific), 450 μM 1-mono thioglycerol (manufactured by Wako Pure Chemical Industries, Ltd.), 1×Chemically defined lipid concentrate (manufactured by Thermo Fisher Scientific), 50 unit/ml penicillin-50 μg/ml streptomycin (manufactured by Nacalai Tesque) was used.\nThe cell masses on day 37 of suspension culturing and prepared by the above-mentioned method were added to 1.5 ml microtubes at 3 masses per tube, and washed twice with PBS. […] The concentration of fluorescein in the extract prepared by the above-mentioned method was measured using a fluorescent plate reader (2104 EnVision multilabel counter, manufactured by Perkin Elmer) under the conditions of excitation 485 nm and emission 535 nm."}, "[2]": {"tested_on": "Human ES cells (KhES-1 strain)", "assay": "Consideration of timing of addition of BMP4 in production of cell mass (Example 4)", "procedure": "(§1) Human ES cells (KhES-1 strain, obtained from Kyoto University) were cultured under feeder-free conditions according to the method described in Scientific Reports, 4, 3594 (2014). As the feeder-free medium, StemFit medium was used and, as the feeder-free scaffold, Laminin 511-EB was used.\nSpecific maintenance culturing operation was performed in the same manner as in Comparative Example 1. Thereafter, suspension culturing in a 96-well plate under conditions similar to those in Comparative Example 1 was started. The condition without addition of a BMP signal transduction pathway activating substance during the suspension culturing period was taken as the control (−BMP4 condition, FIG. 5A). In the condition with the addition of a BMP signal transduction pathway activating substance simultaneously with the start of the suspension culturing (Day0+BMP4 condition, FIG. 5B), human recombinant BMP4 (manufactured by R & D Systems, 1.5 nM, start of step 2) was added. Thereafter, in the condition with the addition of a BMP signal transduction pathway activating substance on days 1, 2, 3 from the start of suspension culturing (Day1-3+BMP4 condition, FIGS. 5C-E), a serum-free medium not containing Y27632 and containing IWP-2, SB-431542, BMP4 was added at 100 μl per well. BMP4 was added at 3 nM to the medium such that the final concentration thereof in the well was 1.5 nM. Only in the Day0+BMP4 condition, a serum-free medium not containing Y27632 and containing IWP-2, SB-431542, BMP4 was added at 100 μl per well on day 3 from the start of suspension culturing. In the condition with the addition of a BMP signal transduction pathway activating substance on day 6 from the start of differentiation induction (Day6+BMP4 condition, FIG. 5F), a serum-free medium not containing Y27632 or BMP4 and containing IWP-2 and SB-431542 was added at 100 μl per well on day 3 from the start of differentiation induction, and a half amount of the medium was changed on day 6 with a serum-free medium not containing Y27632 and containing IWP-2, SB-431542, BMP4. Under other conditions, a half amount of the medium was changed with a serum-free medium not containing Y27632 or BMP and containing IWP-2 and SB-431542 on day 6 from the start of suspension culturing. On day 10 from the start of suspension culturing, bright field observation was performed using an inverted microscope (manufactured by KEYENCE CORPORATION, BIOREVO) (FIGS. 5A-B)."}, "[3]": {"tested_on": "Human ES cells (KhES-1 strain)", "assay": "Consideration of concentration of BMP4 in production of cell mass (Example 6)", "procedure": "as §1, with “511-E8” for “511-EB”, “used. Specific maintenance culturing operation was performed in the same manner as in Comparative Example 1.” for “used.”\nThe thus-prepared subconfluent human ES cells were washed with PBS, subjected to an enzyme treatment using Accumax, a serum-free medium for differentiation induction was added, and the cells were scraped from the surface of the culture dish by using a cell scraper and dispersed into single cells by pipetting. Thereafter, the aforementioned human ES cells dispersed into single cells were suspended in 100 μl of a serum-free medium at 1×10^4 cells per well of a non-cell-adhesive 96-well culture plate (PrimeSurface 96V-bottom plate, manufactured by SUMITOMO BAKELITE), and cultured in suspension under the conditions of 37° C., 5% CO2. […]"}, "[4]": {"settings": "BMP4 1.5 nM, observation day 10"}}, "note": "Structures can show the parent of a compound that is named as a salt."}
{"molecule": "CC(CN1c2ccccc2Sc2ccccc21)N(C)C", "note": "(stereo not shown) [promethazine hydrochloride]", "values": [{"measurement": "elution amount after incorporation of fluorescein", "setting": "[1]", "value": "significant difference"}]}
{"molecule": "O=Cc1ccc(C(=O)O)cc1", "note": "[4-formylbenzoic acid]", "values": [{"measurement": "elution amount after incorporation of fluorescein", "setting": "[1]", "value": "significant difference"}]}
{"molecule": "BMP4: human recombinant BMP4 (manufactured by R & D Systems), BMP signal transduction pathway activating substance (protein, UniProt P12644 293-408, looked up) Bone morphogenetic protein 4: SPKHHSQRARKKNKNCRRHSLYVDFSDVGWNDWIVAPPGYQAFYCHGDCPFPLADHLNSTNHAIVQTLVNSVNSSIPKACCVPTELSAISMLYLDEYDKVVLKNYQEMVVEGCGCR", "values": [{"measurement": "time of addition from the start of suspension culturing effective for formation of the cell mass", "setting": "[2]; BMP4 1.5 nM", "value": "≤ 72", "unit": "h"}, {"measurement": "formation of cell masses with two-layer structure", "setting": "[2]; BMP4 1.5 nM added on day 1 and day 2 (Day1, 2+BMP4), observation day 10", "value": "cell masses containing neural tissue and nonneural epithelial tissue and having a two-layer structure in which a center part with a neuroepithelium-like structure is covered with a nonneural epithelium-like layer were formed"}, {"measurement": "efficiency of formation of nonneural epithelium-like tissue on the outside", "setting": "[2]; BMP4 1.5 nM added on day 3 and day 6, observation day 10", "value": "lower than that of the condition with the addition of BMP4 on day 2"}, {"measurement": "formation of embryoid body", "setting": "[2]; BMP4 1.5 nM added simultaneously with start of differentiation induction (Day0+BMP4), observation day 10", "value": "markedly inhibited"}, {"measurement": "diameter of embryoid body, BMP4 on day 2 relative to BMP4 on day 1", "setting": "[2]; [4]", "value": "about 1.3 times"}, {"measurement": "volume of embryoid body, BMP4 on day 2 relative to BMP4 on day 1", "setting": "[2]; [4]", "value": "about 2.2 times"}, {"measurement": "BMP4 concentration at which nonneural epithelial tissue can be formed on the surface of cell mass", "setting": "[3]; BMP4 added on day 2 from the start of suspension culturing", "value": "not less than 0.1 nM"}, {"measurement": "formation of cell mass having nonneural epithelial tissue on the surface", "setting": "[3]; BMP4 at any concentration from 0.1 nM to 5 nM added on day 2, IWP-2 2 μM, SB-431542 1 μM, observation day 10", "value": "a cell mass having nonneural epithelial tissue on the surface was formed"}]}
